# Laboratory results as given in patent publication US6608174B1, “Radiolabeled vasoactive intestinal peptide analogs for diagnosis and radiotherapy” (Dabur Research Foundation, priority 2000, dated 2003).
# Square brackets hold non-standard residues; d marks the D form. Ends that are not written are not given here. dPhe(4-Cl) = N[C@H](Cc1ccc(Cl)cc1)C(=O)O; Aib = CC(C)(N)C(=O)O
# Assays:
# VIP receptors = assay: Displacement assay using 125I labeled VIP on human tumor cell lines; type: binding; details: for IC50: inhibition of 125I labeled VIP binding
# Procedure: Peptides of the invention were assayed for biological activity in homogeneous competition binding assays using ^125I labeled VIP peptide (SEQ ID NO:1) and in heterogeneous displacement assays using either ^125I labeled VIP (10-28) fragment (Tyr-Thr-Arg-Leu-Arg-Lys-Gln-Met-Ala-Val-Lys-Lys-Tyr-Leu-Asn-Ser-Ile-Leu-Asn-NH2) (SEQ ID NO: 12) or ^125I labeled VIP (SEQ ID NO:1). The assays were performed on a variety of human tumor cell lines.
# In the practice of these methods, the peptide was radioiodinated using the iodogen method. Briefly, 5 μg of the peptide in 10 μl of 50 mM PBS (pH 7.5), an appropriate amount of the radioisotope and 50 μg-100 μg iodogen were incubated at room temperature for 15-30 min with occasional mixing. Radioiodinated peptide was purified from unincorporated radioactive iodine by purification on a Sep Pak C18 cartridge, essentially following the same procedure as described for technetium labeling.
# Displacement assays were performed at 4-8° C. Briefly, 50,000 cells were plated per well of a 24 well plate and allowed to adhere overnight. Before the assay, the cells were washed twice with ice cold Binding buffer (25 mM HEPES, 10 mM […] MgCl2 and 1% BSA in RPMI 1640 medium). The cells were incubated for 2-3hrs with an appropriate concentration (0.1-10 nM) of ^125I labeled VIP (SEQ ID NO:1) in the presence and absence of the cold ligand (SEQ ID NO: 2) (1 nM-10 μM). The non specific binding was ascertained using 10 μM of VIP. After incubation, the cells were washed thrice with the Binding buffer to remove the unbound peptide. The cells were lysed and counts were measured in a Gamma counter. From a comparison of the extent of binding in the presence or absence of the unlabeled peptide, a concentration was determined corresponding to inhibition of ^125I labeled VIP binding by 50%. Different tumor cell lines were assayed using the above described displacement assay: HT29 (human colorectal adenocarcinoma); PTC (human primary tumor cells adenocarcinoma); KB (human squamous cell carcinoma); 4451 (human squamous cell carcinoma); L132 (human lung carcinoma); A549 (human lung carcinoma); HBL100 (human breast carcinoma) and PA1 (human ovarian carcinoma). Cells were grown in RPMI 1640 supplemented with 10% fetal calf serum, glutamine and antibiotics using standard cell culture techniques (see Animal Cell Culture: A Practical Approach, Freshney, ed, IRL press: Oxford, UK, 1992).
# [1] = molecular target: VIP receptors on human tumor cell lines (human); assay: displacement of 125I labeled VIP on KB cells
# [2] = molecular target: high affinity (nM range), low surface expression receptor on human tumor cells (VIP receptor) (human); assay: maximal binding, 125I-SEQ ID NO:2 on PTC cells
# [3] = molecular target: low affinity (µM range), high surface expression receptor on human tumor cells (VIP receptor) (human); assay: maximal binding, 125I-SEQ ID NO:2 on PTC cells
# [4] = molecular target: VIP receptors on human tumor cell lines (human); assay: displacement of 125I labeled VIP on 4451 cells
# [5] = molecular target: VIP receptors on human tumor cell lines (human); assay: displacement of 125I labeled VIP on HT29 cells
# [6] = molecular target: VIP receptors on human tumor cell lines (human); assay: displacement of 125I labeled VIP on L132 cells
# [7] = molecular target: high affinity (nM range), low surface expression receptor on human tumor cells (VIP receptor) (human); assay: maximal binding, 125I-SEQ ID NO:2 on 4451 cells
# [8] = molecular target: low affinity (µM range), high surface expression receptor on human tumor cells (VIP receptor) (human); assay: maximal binding, 125I-SEQ ID NO:2 on 4451 cells
# [9] = molecular target: high affinity (nM range), low surface expression receptor on human tumor cells (VIP receptor) (human); assay: maximal binding, 125I-SEQ ID NO:2 on A549 cells
# [10] = molecular target: low affinity (µM range), high surface expression receptor on human tumor cells (VIP receptor) (human); assay: maximal binding, 125I-SEQ ID NO:2 on A549 cells
# [11] = molecular target: high affinity (nM range), low surface expression receptor on human tumor cells (VIP receptor) (human); assay: maximal binding, 125I-SEQ ID NO:2 on L132 cells
# [12] = molecular target: low affinity (µM range), high surface expression receptor on human tumor cells (VIP receptor) (human); assay: maximal binding, 125I-SEQ ID NO:2 on L132 cells
# [13] = molecular target: VIP receptors on human tumor cell lines (human); assay: displacement of 125I labeled VIP (10-28) fragment on KB cells
# [14] = molecular target: VIP receptors on human tumor cell lines (human); assay: displacement of 125I labeled VIP (10-28) fragment on L132 cells
# [15] = molecular target: high affinity (nM range), low surface expression receptor on human tumor cells (VIP receptor) (human); assay: homologous radioligand competition, 125I-SEQ ID NO:2 on PA1 cells
# [16] = molecular target: low affinity (µM range), high surface expression receptor on human tumor cells (VIP receptor) (human); assay: as above
# [17] = molecular target: high affinity (nM range), low surface expression receptor on human tumor cells (VIP receptor) (human); assay: homologous radioligand competition, 125I-SEQ ID NO:2 on PTC cells
# [18] = molecular target: low affinity (µM range), high surface expression receptor on human tumor cells (VIP receptor) (human); assay: as above
# [19] = molecular target: high affinity (nM range), low surface expression receptor on human tumor cells (VIP receptor) (human); assay: homologous radioligand competition, 125I-SEQ ID NO:2 on A549 cells
# [20] = molecular target: low affinity (µM range), high surface expression receptor on human tumor cells (VIP receptor) (human); assay: as above
# [21] = molecular target: low affinity (µM range), high surface expression receptor on human tumor cells (VIP receptor) (human); assay: homologous radioligand competition, 125I-SEQ ID NO:2 on HT29 cells
# [22] = molecular target: VIP receptors on human tumor cell lines (human); assay: displacement of 125I labeled VIP (10-28) fragment on HBL 100 cells
molecule,measurement,setting,value
"His-Ser-Asp-Aib-Val-4-Cl-D-Phe-Thr-Asp-Asn-Tyr-Thr-Arg-Leu-Arg-Lys-Gln-Leu-Ala-Val-Lys-Lys-Tyr-Leu-Asn-Ser-Ile-Leu-Asn-NH2 (HSD[Aib]V[dPhe(4-Cl)]TDNYTRLRKQLAVKKYLNSILN-NH2; N-terminus assumed; SMILES CC[C@H](C)[C@H](NC(=O)[C@H](CO)NC(=O)[C@H](CC(N)=O)NC(=O)[C@H](CC(C)C)NC(=O)[C@H](Cc1ccc(O)cc1)NC(=O)[C@H](CCCCN)NC(=O)[C@H](CCCCN)NC(=O)[C@@H](NC(=O)[C@H](C)NC(=O)[C@H](CC(C)C)NC(=O)[C@H](CCC(N)=O)NC(=O)[C@H](CCCCN)NC(=O)[C@H](CCCNC(=N)N)NC(=O)[C@H](CC(C)C)NC(=O)[C@H](CCCNC(=N)N)NC(=O)[C@@H](NC(=O)[C@H](Cc1ccc(O)cc1)NC(=O)[C@H](CC(N)=O)NC(=O)[C@H](CC(=O)O)NC(=O)[C@@H](NC(=O)[C@@H](Cc1ccc(Cl)cc1)NC(=O)[C@@H](NC(=O)C(C)(C)NC(=O)[C@H](CC(=O)O)NC(=O)[C@H](CO)NC(=O)[C@@H](N)Cc1c[nH]cn1)C(C)C)[C@@H](C)O)[C@@H](C)O)C(C)C)C(=O)N[C@@H](CC(C)C)C(=O)N[C@@H](CC(N)=O)C(N)=O) [SEQ ID NO:2, VIP receptor antagonist, preferred peptide (Xxx = Aib)]",IC50,VIP receptors; 4451 cells,7.1 nM
same,IC50,VIP receptors; A549 cells,4.3 nM
same,IC50,VIP receptors; HBL 100 cells,5.41 nM
same,IC50,VIP receptors; HT29 cells,2.78 nM
same,IC50,VIP receptors; KB cells,6.2 nM
same,IC50,VIP receptors; L132 cells,6.8 nM
same,IC50,VIP receptors; PA1 cells,7.6 nM
same,IC50,VIP receptors; PTC cells,2.53 nM
same,displacement of binding of radiolabelled VIP to the cell lines,VIP receptors; all cell lines of Table IV,significantly displace
HSD[Aib]V[dPhe(4-Cl)]TDNYTRLRKQLAVKKYLNSILN-NH2 (also: 125I-labelled form (iodogen) used as tracer),IC50,[1],6.2 nM
same,Bmax1,[2],830 pM
same,Bmax2,[3],96.6 nM
same,IC50,[4],7.1 nM
same,IC50,[5],2.78 nM
same,IC50,[6],6.8 nM
same,Bmax1,[7],579 pM
same,Bmax2,[8],51 nM
same,Bmax1,[9],540 pM
same,Bmax2,[10],48.3 nM
same,Bmax1,[11],306 pM
same,Bmax2,[12],45.8 nM
same,IC50,[13],0.35 nM
same,IC50,[14],0.228 nM
same,Kd,[15],5.6 nM
same,Kd,[16],1890 nM
same,Kd,[17],1.77 nM
same,Kd,[18],1180 nM
same,Kd,[19],2.09 nM
same,Kd,[20],1530 nM
same,Kd,[21],1370 nM
same,IC50,[22],0.236 nM
